Test results from paper PMC4105859, “Characterization of the SAM domain of the PKD-related protein ANKS6 and its interaction with ANKS3” (BMC Structural Biology, 2014).
Where a chain is given by its changes, count along the chain named. Numbers in names are those of the source.

T1: ANKS3-SAM F53E
T1 chain: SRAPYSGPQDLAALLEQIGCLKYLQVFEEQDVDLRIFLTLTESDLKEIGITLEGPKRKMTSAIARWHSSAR

T2: ANKS6-SAM wt (human, UniProt Q68DC2 771-840)
T2 chain: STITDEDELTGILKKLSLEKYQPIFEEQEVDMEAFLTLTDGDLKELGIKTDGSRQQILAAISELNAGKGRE

B1: ANKS3-SAM I36E (domain or fragment)
chain: T1 chain with I36E, E53F
B2: negGFP-ANKS3-SAM fusion protein (domain or fragment, human, UniProt Q6ZW76 421-490, looked up)
chain: RAPYSGPQDLAALLEQIGCLKYLQVFEEQDVDLRIFLTLTESDLKEIGITLFGPKRKMTSAIARWHSSAR
notes: ANKS3 (ankyrin repeat and SAM-domain containing protein 3), human, SAM domain, residues 421-490 of UniProt Q6ZW76; source: ARI814 cells, in lysate (native gel); purified (Ni-NTA, HiTrap Q) for TEM
B3: His6-tagged ANKS3-SAM (domain or fragment, human, UniProt Q6ZW76 421-490, looked up)
chain: B2 chain
notes: ANKS3, human, SAM domain, residues 421-490 of UniProt Q6ZW76; pET28 vector; also called ANKS3-SAM (negGFP removed); ANKS3-SAM precipitate; source: Rosetta(DE3) cells, purified (Ni-NTA); precipitated after purification
B4: His6-tagged ANKS6-SAM (domain or fragment, human, UniProt Q68DC2 771-840, looked up)
chain: TITDEDELTGILKKLSLEKYQPIFEEQEVDMEAFLTLTDGDLKELGIKTDGSRQQILAAISELNAGKGRE
notes: ANKS6, human, SAM domain, residues 771-840 of UniProt Q68DC2; pBAD-HisA vector; source: ARI814 cells, purified (HiTrap IMAC, HiTrap Q)

How the values were obtained:
ANKS3-SAM F53E = biological target: T1, ANKS3-SAM F53E; assay: SPR; details: chain shown with the change, read off a plot
ANKS6-SAM wt [1] = biological target: T2, ANKS6-SAM wt; assay: SPR; value printed in panel; legend gives 249 nM
ANKS6-SAM wt [2] = biological target: T2, ANKS6-SAM wt; assay: SPR; ANKS6-SAM wt immobilised on CM5 (EDC/NHS), ANKS3-SAM I36E flowed over; Biacore T100, 21°C, 20 mM HEPES pH 7.5, 1 mM DTT, 0.04% IGEPAL CA-630, 0.15 M NaCl; equilibrium, 1:1 steady-state model, triplicate
ANKS3-SAM F53E (human) = assay: SPR; ANKS3-SAM F53E immobilised on CM5 (EDC/NHS), ANKS3-SAM I36E flowed over; Biacore T100, 21°C, 20 mM HEPES pH 7.5, 1 mM DTT, 0.04% IGEPAL CA-630, 0.15 M NaCl; equilibrium, 1:1 steady-state model, triplicate; Kd called an approximation since saturation was not reached
[3] = biological target: the molecule itself; assay: negative stain transmission electron microscopy; purified protein or its precipitate on carbon/formvar grids, 1% uranyl acetate, 120 kV
His6-tagged ANKS3-SAM = biological target: B3; assay: resolubilisation of a precipitate; His6-ANKS3-SAM precipitate (3.2 mg/mL dialysed into 20 mM Tris pH 7, 0.25 M NaCl, 1 mM DTT); His6-ANKS6-SAM at 3.3 mg/mL or buffer alone added at 2:1, 1:1, 1:2; 3 h on ice; details: both partners purified

## B1
ANKS3-SAM F53E; Log [NaCl] est. -0.60
  other: Log (Kd): 4
ANKS3-SAM F53E; Log [NaCl] est. -0.70
  other: Log (Kd): 3.9
ANKS3-SAM F53E; Log [NaCl] est. -0.82
  other: Log (Kd): 3.8
ANKS3-SAM F53E; Log [NaCl] est. -1.0
  other: Log (Kd): 3.7
ANKS6-SAM wt [1]
  Kd: 270 nM
ANKS6-SAM wt [2]
  Kd: 249 nM
ANKS3-SAM F53E (human)
  Kd: 5800 nM

## B2
[3]
  binding result: binds

## B3
[3]
  binding result: binds

## B4
His6-tagged ANKS3-SAM
  binding result: binds
